Key:
Assay in all cases: cell-based or functional assay
[1] = target: T1, human epidermal growth factor receptor 2 (HER2), membrane-bound on tumor cells (AU565, A431, SK-BR-3) (human, UniProt P04626 23-1255)
[2] = target: T1, human epidermal growth factor receptor …; remark: listed apart in the source
[3] = target: T1, human epidermal growth factor receptor …; remark: listed apart in the source

Row | Binder | EC50, fab-CypHer5E internalization assay, AU565 cells [1] | Maximal MFI, fab-CypHer5E internalization assay, AU565 cells [1] | % cells killed, AU565 cells, anti-kappa-ETA′-conjugated antibody [2] | EC50 of killing, AU565 cells, anti-kappa-ETA′-conjugated antibody [2] | EC50 of killing, A431 cells, anti-kappa-ETA′-conjugated antibody [3]
1 | HuMab 106 (antibody, V domains shown) VH: EVQLVQSGAEVKKPGESLKISCKGSGYSFTRYWIGWVRQMPGKGLEWMGIIYPGDSDTRYSPSFQGQVTISADKSISTAYLQWSSLKASDTAMYYCARLTGDRGFDYYSGMDVWGQGTTVTVSS VL: not shown | 0.0686 µg/mL | 57400 MFI | 59.1% | 0.108 µg/mL | –
2 | HuMab 005 (antibody, human IgG1, V domains shown) VH: EVQLVQSGAEVKKPGESLKISCKASGYSFHFYWIGWVRQMPGKGLEWMGSIYPGDSDTRYRPSFQGQVTISADKSISTAYLQWTSLKASDTAIYYCARQRGDYYYFYGMDVWGQGTTVTVSS VL: not shown | 0.0214 µg/mL | 95100 MFI | 69.7% | 0.0151 µg/mL | ~0.0101 µg/mL
3 | HuMab 059 (antibody, V domains shown) VH: QVQLVQSGAEVKKPGASVRVPCKASGYTFTRYGISWVRQAPGQGLEWMGWISAYNGKTYYAQKLQGRVTMTTDTSTSTAYMELRSLRSDDTAVYYCARSPLLWFEELYFDYWGQGTLVTVSS VL: EIVLTQSPGTLSLSPGERATLSCRASQSVSSTYLAWYQQKPGQAPRLLIYGASSRATGIPDRFSGSGSGTDFTLTISRLEPEDFAVYYCQQYGTSLFTFGPGTKVDIK | 0.0148 µg/mL | 77100 MFI | 67% | 0.0677 µg/mL | –
4 | HuMab 060 (antibody, V domains shown) VH: EVQLVQSGAEVKKPGESLKISCKGSGYRFTSYWIGWVRQMPGKGLEWMGSIYPGDSYTRNSPSFQGQVTISADKSIATAYLQWNSLKASDTAMYYCARHAGDFYYFDGLDVWGQGTTVTVSS VL: not shown | 0.0362 µg/mL | 68200 MFI | 64.3% | 0.0794 µg/mL | ~0.01 µg/mL
5 | HuMab 111 (antibody, V domains shown) VH: QVQLVQSGAEVKKPGSSVKVSCKASGGTFSSYGISWVRQAPGPGLEWMGRIIPILGIANYAQKFQGRVTITADKSTNTAYMELSSLRSEDTAVYYCARDQEYSSNWYYWGQGTLVTVSS VL: not shown | 0.0352 µg/mL | 81700 MFI | 72% | 0.0242 µg/mL | –

Reference: US20180022816A1 (Genmab, published 2018)
